Where a chain is given by its changes, count along the chain named.

The target of test [1] is T1, human OPGbp[143-317] (human, UniProt O14788 143-317).
T1 sequence (looked up): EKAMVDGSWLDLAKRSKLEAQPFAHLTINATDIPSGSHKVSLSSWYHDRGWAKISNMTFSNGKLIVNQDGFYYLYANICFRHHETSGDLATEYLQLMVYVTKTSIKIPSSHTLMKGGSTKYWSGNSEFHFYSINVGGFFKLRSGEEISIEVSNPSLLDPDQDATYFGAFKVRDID
The test is described as follows: cell-based or functional assay.

Test [2] concerns the target T2, FLAG-murine OPGbp[158-316]/DE (murine, UniProt O35235 158-316).
T2 construct: Produced in E. coli; also called FLAG-mouse OPGbp/DE; DE variant
T2 sequence: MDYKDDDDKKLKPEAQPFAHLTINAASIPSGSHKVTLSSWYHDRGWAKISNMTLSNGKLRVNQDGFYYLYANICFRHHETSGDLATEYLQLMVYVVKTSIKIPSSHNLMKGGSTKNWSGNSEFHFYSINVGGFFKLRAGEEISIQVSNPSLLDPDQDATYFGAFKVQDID
Nature of the test: EIA: plate coated with FLAG-murine OPGbp[158-316]/DE at 3 ug/ml, AT antibody in twofold steps 1.953-2000 ng/ml, goat anti-human IgG (Fc) conjugate, ABTS, absorbance at 405 nm. The procedure:
(§1) After overnight incubation, the protein solutions were removed from the plate and 200 μl of 5% Chicken Serum (Gibco/BRL Cat# 16110-082) in PBST (PBS plus 0.05% Tween 20) was added to each well of the plate and plates were incubated at room temperature (RT) for 90 min with agitation. After incubation and blocking, plates were washed 4 times with 1×K-P wash solution in dH₂O (Cat#50-63-00, Kirkegaard & Perry Laboratories) and dried. […] Plates were incubated for three hours at room temperature with agitation, washed four times with 1×K-P wash solution and dried. Goat anti-human IgG (Fc) (Jackson ImmunoResearch, Cat# 109-036-098) was diluted 1:5000 in 5% Chicken Serum in PBST and 100 μl was added to each well. […] 100 μl of undiluted ABTS substrate (Kirkegaard & Perry; Cat# 50-66-00) was added to each well and the dish was incubated at room temperature until sufficient blue-green color developed. Color development was stopped by addition of 100 μl 1% SDS. Quantitation of color development was performed using a microtiter plate reader with detection at 405 nm.

In test [3] the target is T1, human OPGbp[143-317]. The test is described as follows: EIA: plate coated with human OPGbp[143-317] at 3 ug/ml, AT antibody in twofold steps 1.953-2000 ng/ml, goat anti-human IgG (Fc) conjugate, ABTS, absorbance at 405 nm. The procedure: as §1
Test [4] deals with T1, human OPGbp[143-317]. The test is described as follows: SPR (BIAcore), immobilized OPGbp[143-317]. In general terms: Surface plasmon resonance follows binding to a sensor surface in real time, without labels.

B1: Fab “Y” (Fab, V domains shown)
VH: EVQLVQSGAEVRKPGASVKVSCKASGYDFSNYAIHWVRQAPGQRLEWMGWINAGNGNTKFSQKFQGRITVTRDTAASTAYMELRSLRSEDTAVYYCARDSSNMVRGIIIAYYFDYWGQGTLVTVSS
VL: EIVLTQSPATLSFSPGERATLSCRASQSVGSYLAWYQQRPGQAPRPLIYDATNRATGIPTRFSGSGSGTDFTLTISSLEPEDFATYYCQHRRTFGRGTKLEIKR
For B1, the “murine bone marrow assay, TRAP in solution (pNPP), IC50” value with human OPGbp[143-317] [1] is 212 nM.

B2: “AT” antibody (antibody, human IgG1, V domains shown)
VH: B1 VH with E1Q
VL: EIVMTQSPSSLSASVGDRVTITCRASQSISRYLNWYQLKPGKAPRLLIYGASSLQSGVPSRFSGSGSGAEFTLTISSLQPEDIATYYCQHTRAFGQGTKVEIKR
notes: Full-length antibody from CHO cells: Fab “AT” heavy chain variable region joined to human IgG1 CH1, hinge, CH2 and CH3; light chain of Fab “AT” (kappa); the mature antibodies are identical; also called “AT” Ab; “AT” Nb
As a reminder, the EC50 (read off the curve) is the concentration giving half of the maximal effect. A high value points to a less potent agent. Turning to B2, the figures for the 50% effective concentration (EC50 (read off the curve)) (in test [2]; with human OPGbp[143-317] [3]) were roughly 0.02 µg/mL and roughly 0.01 µg/mL, respectively.

B3: “AT” Fab S96A (Fab, V domains shown)
VH: B1 VH with E1Q, S100A
VL: B2 VL
modifications: The Fab carried a 6xHis tag. Its chain and terminus are not stated, so it is left out.
notes: His-tagged Fab
The term koff denotes a measure of how fast the partners let go of each other. B3 gave an off-rate constant (koff) in the test with human OPGbp[143-317] [4] of 0.0072 s⁻¹.

B4: “AT” Fab Y111A (Fab, V domains shown)
VH: B1 VH with E1Q, Y115A
VL: B2 VL
notes: His-tagged Fab
The molecule B4 came in with an off-rate (koff) in the test with human OPGbp[143-317] [4] of 0.414 s⁻¹.

B5: “AT” Fab N98A (Fab, V domains shown)
VH: B1 VH with E1Q, N102A
VL: B2 VL
modifications: The Fab carried a 6xHis tag. Its chain and terminus are not stated, so it is left out.
notes: His-tagged Fab
As to B5, in the test with human OPGbp[143-317] [4], the koff worked out at 0.012 s⁻¹.

B6: “AT” Fab D95A (Fab, V domains shown)
VH: B1 VH with E1Q, D99A
VL: B2 VL
modifications: The Fab carried a 6xHis tag. Its chain and terminus are not stated, so it is left out.
notes: His-tagged Fab
For the molecule B6, the binding result in the test with human OPGbp[143-317] [4] is on record as “no binding”.

B7: “AT” Fab D110A (Fab, V domains shown)
VH: B1 VH with E1Q, D114A
VL: B2 VL
notes: His-tagged Fab
Molecule B7 showed a koff with human OPGbp[143-317] [4] of 0.127 s⁻¹.

B8: “AT” Fab S97A (Fab, V domains shown)
VH: B1 VH with E1Q, S101A
VL: B2 VL
modifications: The Fab carried a 6xHis tag. Its chain and terminus are not stated, so it is left out.
notes: His-tagged Fab
For the molecule B8, the koff with human OPGbp[143-317] [4] was 0.0062 s⁻¹.

Source of the values: patent US20030103978A1 (Amgen, published 2003).
